Our source for the Kd, koff and kon values is PMC6601565.

Test [1] addresses human CD16A-158V ECD fused to Avi-tagged and biotinylated monomeric Fc (silenced) (human). As to the kind of experiment: SPR.
The target in test [2] is human CD16A-158F ECD fused to Avi-tagged and biotinylated monomeric Fc (silenced) (human) (UniProt P08637). As to the kind of experiment: SPR.
Chain of UniProt P08637 (P08637 17-208): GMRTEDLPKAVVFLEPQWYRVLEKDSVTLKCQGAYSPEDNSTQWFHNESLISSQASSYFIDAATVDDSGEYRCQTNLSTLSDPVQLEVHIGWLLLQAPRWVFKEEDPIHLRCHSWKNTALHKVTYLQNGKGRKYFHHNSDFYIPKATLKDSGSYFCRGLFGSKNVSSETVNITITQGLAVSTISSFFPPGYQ

In test [1], “human IgG1 with enhanced Fc (S239D/I332E) (antibody)” showed a Kd of 0.0135 µM, a koff of 0.00639 s⁻¹ and a kon of 474000 M⁻¹ s⁻¹.
Take “human IgG1 with silenced Fc (L234F/L235E/D265A) (antibody)”: in test [2], the Kd stood at 34.7 µM, the koff was 0.71 s⁻¹ and the association rate constant (kon) came out at 20400 M⁻¹ s⁻¹.
In test [1], human IgG1 with wildtype Fc (antibody) showed a Kd of 0.424 µM, a koff of 0.00995 s⁻¹ and a kon of 23500 M⁻¹ s⁻¹. In test [2], the Kd was 2.72 µM, the koff was determined as 0.0675 s⁻¹ and the kon was found to be 24800 M⁻¹ s⁻¹.
